Experimental data: paper PMC6348423, “Rapid Mapping of Protein Interactions Using Tag‐Transfer Photocrosslinkers” (Angewandte Chemie (International Ed. in English), 2018)
Ends that are not written are not given here. Peptide text beside a SMILES is read from it. * marks the point of attachment. MTS‑TFMD = trifluoromethyl phenyl diazirine photocrosslinker tag, disulfide-linked to Cys via MTS; MTS‑diazirine = alkyl diazirine tag, disulfide-linked to Cys via MTS; X1 = FC(F)(F)C1(c2ccc(CS*)cc2)N=N1; X2 = CC1(CCS*)N=N1

T1: MCL-1 (human, UniProt Q07820 1-350)
T1 chain: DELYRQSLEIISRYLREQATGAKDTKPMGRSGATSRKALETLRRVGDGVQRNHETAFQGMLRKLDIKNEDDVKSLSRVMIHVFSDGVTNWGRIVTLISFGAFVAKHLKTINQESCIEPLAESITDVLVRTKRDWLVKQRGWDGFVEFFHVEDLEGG


How the values were obtained:
MCL-1 [1] = target: T2, MCL-1 (Homo sapiens, UniProt Q07820); assay: Photo-crosslinking of labelled BID80-102 peptides to MCL-1, SDS-PAGE band intensity; details: 20 μM labelled peptide + 20 μM MCL-1, TBS pH 7.6, 365 nm UV LED, 1 min, SDS-PAGE band intensity of crosslinked vs non-crosslinked MCL-1, value ± SD of three repeats
T2 construct: made in house
T2 sequence (Q07820 whole entry): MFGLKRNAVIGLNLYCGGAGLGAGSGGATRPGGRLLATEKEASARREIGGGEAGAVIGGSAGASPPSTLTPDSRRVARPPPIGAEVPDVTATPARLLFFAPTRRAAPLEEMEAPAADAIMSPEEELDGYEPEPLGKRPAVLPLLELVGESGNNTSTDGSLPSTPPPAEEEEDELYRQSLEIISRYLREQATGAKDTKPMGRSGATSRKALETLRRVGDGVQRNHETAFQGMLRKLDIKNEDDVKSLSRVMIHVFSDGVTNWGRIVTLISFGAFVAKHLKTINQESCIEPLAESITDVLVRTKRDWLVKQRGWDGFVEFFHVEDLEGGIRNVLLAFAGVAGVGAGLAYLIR
Method: Cross-linking experiments
For all irradiation methods, samples were prepared in the following way. For crosslinking of MCL-1/BID80-102, 20 μL of a solution containing MTS-diazirine or MTS-TFMD labelled BID80-102 peptide (20 μM) and MCL-1 (20 μM) in buffer 50 mM Tris-HCl, 150 mM NaCl (TBS) pH 7.6 was prepared. […]
This was then placed under a covered LF-206.LS 6 W 365 nm lamp (Uvitec) at a distance of 12 mm from the source for different times up to 30 min. For UV LED chip experiments, acrylic chip chambers were washed with TBS pH 7.6 buffer and 33 µL of sample was added. These were then clamped into the chip holder and irradiated with the 365 nm LED for up to 30 s. A pipette was used to remove the sample from the chip via the lower filling hole. For UV LED tube experiments, 30-130 µL of sample was added to a thin-walled PCR tube and placed inside a 0.5 mL microfuge tube which itself was in a 1.5 mL microfuge tube that had been wrapped in aluminium foil (to reflect the UV irradiation within the containers). Samples were irradiated with the 365 nm LED for 30 s. To crosslink MCL-1 BID80-102, samples were irradiated using this apparatus for 1 min.
Separation and enrichment of cross-linked products
To separate and/or enrich crosslinked samples three methods were used as described in the main text.
Table S1: Affinity (EC50) of labelled BID80-102 peptides to MCL-1 as determined by competition fluorescence anisotropy assay. Crosslinking efficiency of labelled BID80-102 peptides to MCL-1 based on the SDS-PAGE band intensity of crosslinked and non-crosslinked […]
The values and standard deviations are results of three repeats. n.d = not determined as binding was too weak to enable an accurate fit to be obtained.
BID peptide EC50 for affinity to MCL-1 (nM) Crosslinked Mcl-1 (%)

MCL-1 [2] = target: T1, MCL-1; assay: FP

Crosslinked Mcl-1 (crosslinking efficiency) (MCL-1 [1]; SD) [%]	EC50 (MCL-1 [2]) [nM]	Molecule	further results
40 ± 8	–	MTS-TMFD labelled V93C: single Cys variant V93C of BID80–102 tagged with MTS-TFMD (EDIIRNIARHLAQC(MTS‑TFMD)GDSMDRSIP; UniProt P55957 80-102, looked up, fragment V93C)	–
19 ± 2	–	CC[C@H](C)[C@H](NC(=O)[C@H](CC(N)=O)NC(=O)[C@H](CCCNC(=N)N)NC(=O)[C@H](CSSCCC1(C)N=N1)NC(=O)[C@@H](NC(=O)[C@H](CC(=O)O)NC(=O)[C@H](CCC(=O)O)NC(C)=O)[C@@H](C)CC)C(=O)N[C@@H](C)C(=O)N[C@@H](CCCNC(=N)N)C(=O)N[C@@H](Cc1c[nH]cn1)C(=O)N[C@@H](CC(C)C)C(=O)N[C@@H](C)C(=O)N[C@@H](CCC(N)=O)C(=O)N[C@H](C(=O)NCC(=O)N[C@@H](CC(=O)O)C(=O)N[C@@H](CO)C(=O)N[C@@H](CCSC)C(=O)N[C@@H](CC(=O)O)C(=O)N[C@@H](CCCNC(=N)N)C(=O)N[C@@H](CO)C(=O)N[C@H](C(=O)N[C@@H](Cc1c[nH]c2ccccc12)C(N)=O)[C@@H](C)CC)C(C)C [MTS-diazirine labelled I83C] (Ac-EDIC(X2)RNIARHLAQVGDSMDRSIW-NH2)	–
9 ± 3	–	CC[C@H](C)[C@H](NC(=O)[C@H](CC(N)=O)NC(=O)[C@H](CCCNC(=N)N)NC(=O)[C@@H](NC(=O)[C@@H](NC(=O)[C@H](CC(=O)O)NC(=O)[C@H](CCC(=O)O)NC(C)=O)[C@@H](C)CC)[C@@H](C)CC)C(=O)N[C@@H](C)C(=O)N[C@@H](CCCNC(=N)N)C(=O)N[C@@H](Cc1c[nH]cn1)C(=O)N[C@@H](CC(C)C)C(=O)N[C@@H](C)C(=O)N[C@@H](CCC(N)=O)C(=O)N[C@@H](CSSCCC1(C)N=N1)C(=O)NCC(=O)N[C@@H](CC(=O)O)C(=O)N[C@@H](CO)C(=O)N[C@@H](CCSC)C(=O)N[C@@H](CC(=O)O)C(=O)N[C@@H](CCCNC(=N)N)C(=O)N[C@@H](CO)C(=O)N[C@H](C(=O)N[C@@H](Cc1c[nH]c2ccccc12)C(N)=O)[C@@H](C)CC [MTS-diazirine labelled V93C] (Ac-EDIIRNIARHLAQC(X2)GDSMDRSIW-NH2)	–
16 ± 2	–	CC[C@H](C)[C@H](NC(=O)[C@H](CO)NC(=O)[C@H](CCCNC(=N)N)NC(=O)[C@H](CC(=O)O)NC(=O)[C@H](CCSC)NC(=O)[C@H](CO)NC(=O)[C@H](CC(=O)O)NC(=O)CNC(=O)[C@@H](NC(=O)[C@H](CCC(N)=O)NC(=O)[C@H](C)NC(=O)[C@H](CC(C)C)NC(=O)[C@H](Cc1c[nH]cn1)NC(=O)[C@H](CCCNC(=N)N)NC(=O)[C@H](C)NC(=O)[C@H](CSSCCC1(C)N=N1)NC(=O)[C@H](CC(N)=O)NC(=O)[C@H](CCCNC(=N)N)NC(=O)[C@@H](NC(=O)[C@@H](NC(=O)[C@H](CC(=O)O)NC(=O)[C@H](CCC(=O)O)NC(C)=O)[C@@H](C)CC)[C@@H](C)CC)C(C)C)C(=O)N[C@@H](Cc1c[nH]c2ccccc12)C(N)=O [MTS-diazirine labelled I86C] (Ac-EDIIRNC(X2)ARHLAQVGDSMDRSIW-NH2)	–
31 ± 3	–	CC[C@H](C)[C@H](NC(=O)[C@H](CC(N)=O)NC(=O)[C@H](CCCNC(=N)N)NC(=O)[C@@H](NC(=O)[C@@H](NC(=O)[C@H](CC(=O)O)NC(=O)[C@H](CCC(=O)O)NC(C)=O)[C@@H](C)CC)[C@@H](C)CC)C(=O)N[C@@H](C)C(=O)N[C@@H](CCCNC(=N)N)C(=O)N[C@@H](Cc1c[nH]cn1)C(=O)N[C@@H](CC(C)C)C(=O)N[C@@H](C)C(=O)N[C@@H](CCC(N)=O)C(=O)N[C@H](C(=O)NCC(=O)N[C@@H](CC(=O)O)C(=O)N[C@@H](CO)C(=O)N[C@@H](CCSC)C(=O)N[C@@H](CC(=O)O)C(=O)N[C@@H](CCCNC(=N)N)C(=O)N[C@@H](CSSCc1ccc(C2(C(F)(F)F)N=N2)cc1)C(=O)N[C@H](C(=O)N[C@@H](Cc1c[nH]c2ccccc12)C(N)=O)[C@@H](C)CC)C(C)C [MTS-TMFD labelled S100C]	–
51 ± 6	–	CC[C@H](C)[C@H](NC(=O)[C@H](CC(N)=O)NC(=O)[C@H](CCCNC(=N)N)NC(=O)[C@H](CSSCc1ccc(C2(C(F)(F)F)N=N2)cc1)NC(=O)[C@@H](NC(=O)[C@H](CC(=O)O)NC(=O)[C@H](CCC(=O)O)NC(C)=O)[C@@H](C)CC)C(=O)N[C@@H](C)C(=O)N[C@@H](CCCNC(=N)N)C(=O)N[C@@H](Cc1c[nH]cn1)C(=O)N[C@@H](CC(C)C)C(=O)N[C@@H](C)C(=O)N[C@@H](CCC(N)=O)C(=O)N[C@H](C(=O)NCC(=O)N[C@@H](CC(=O)O)C(=O)N[C@@H](CO)C(=O)N[C@@H](CCSC)C(=O)N[C@@H](CC(=O)O)C(=O)N[C@@H](CCCNC(=N)N)C(=O)N[C@@H](CO)C(=O)N[C@H](C(=O)N[C@@H](Cc1c[nH]c2ccccc12)C(N)=O)[C@@H](C)CC)C(C)C [MTS-TMFD labelled I83C] (Ac-EDIC(X1)RNIARHLAQVGDSMDRSIW-NH2)	–
26 ± 1	–	CC[C@H](C)[C@H](NC(=O)[C@H](CC(N)=O)NC(=O)[C@H](CCCNC(=N)N)NC(=O)[C@@H](NC(=O)[C@@H](NC(=O)[C@H](CC(=O)O)NC(=O)[C@H](CCC(=O)O)NC(C)=O)[C@@H](C)CC)[C@@H](C)CC)C(=O)N[C@@H](C)C(=O)N[C@@H](CCCNC(=N)N)C(=O)N[C@@H](Cc1c[nH]cn1)C(=O)N[C@@H](CC(C)C)C(=O)N[C@@H](C)C(=O)N[C@@H](CCC(N)=O)C(=O)N[C@H](C(=O)NCC(=O)N[C@@H](CC(=O)O)C(=O)N[C@@H](CO)C(=O)N[C@@H](CSSCc1ccc(C2(C(F)(F)F)N=N2)cc1)C(=O)N[C@@H](CC(=O)O)C(=O)N[C@@H](CCCNC(=N)N)C(=O)N[C@@H](CO)C(=O)N[C@H](C(=O)N[C@@H](Cc1c[nH]c2ccccc12)C(N)=O)[C@@H](C)CC)C(C)C [MTS-TMFD labelled M97C] (Ac-EDIIRNIARHLAQVGDSC(X1)DRSIW-NH2)	–
–	460	EDIIRNIARHLAQVGDSMDRSIP (Limits not printed in the main text (supplement); 172-327 is the usual soluble MCL-1 construct for BH3 assays, close to the PDB 2KBW construct) [WT BID_(80-102)]	–

Continued, molecule first:

Molecule	Crosslinked Mcl-1 (crosslinking efficiency) (MCL-1 [1]; SD) [%]	EC50 (MCL-1 [2]) [nM]	further results
CC[C@H](C)[C@H](NC(=O)[C@H](CC(N)=O)NC(=O)[C@H](CCCNC(=N)N)NC(=O)[C@@H](NC(=O)[C@@H](NC(=O)[C@H](CC(=O)O)NC(=O)[C@H](CCC(=O)O)NC(C)=O)[C@@H](C)CC)[C@@H](C)CC)C(=O)N[C@@H](C)C(=O)N[C@@H](CCCNC(=N)N)C(=O)N[C@@H](Cc1c[nH]cn1)C(=O)N[C@@H](CC(C)C)C(=O)N[C@@H](C)C(=O)N[C@@H](CCC(N)=O)C(=O)N[C@H](C(=O)NCC(=O)N[C@@H](CC(=O)O)C(=O)N[C@@H](CO)C(=O)N[C@@H](CCSC)C(=O)N[C@@H](CC(=O)O)C(=O)N[C@@H](CCCNC(=N)N)C(=O)N[C@@H](CO)C(=O)N[C@H](C(=O)N[C@@H](Cc1c[nH]c2ccccc12)C(N)=O)[C@@H](C)CC)C(C)C [WT, reference compound]	–	–	Crosslinked Mcl-1 (crosslinking efficiency) (MCL-1 [1]): 0%
EDIIRNC(MTS‑TFMD)ARHLAQVGDSMDRSIP [BID_(80-102) I86C tagged with MTS-TFMD]	–	1410	–
EDIIRNIARHLAQC(MTS‑diazirine)GDSMDRSIP [BID_(80-102) V93C tagged with MTS-diazirine]	–	8750	–
EDIIRNIARHLAQVGDSMDRCIP (Cys100 disulfide-linked to MTS-diazirine (alkyl diazirine) tag; synthetic peptide, termini not stated in main text Limits not printed in the main text (supplement); 172-327 is the usual soluble MCL-1 construct for BH3 assays, close to the PDB 2KBW construct) [BID_(80-102) S100C tagged with MTS-diazirine]	–	360	–
EDIC(MTS‑TFMD)RNIARHLAQVGDSMDRSIP [BID_(80-102) I83C tagged with MTS-TFMD]	–	338	–
EDIIRNC(MTS‑diazirine)ARHLAQVGDSMDRSIP [BID_(80-102) I86C tagged with MTS-diazirine]	–	5510	–
EDIIRNIARHLAQVGDSC(MTS‑diazirine)DRSIP [BID_(80-102) M97C tagged with MTS-diazirine]	–	422	–
EDIIRNIARHLAQVGDSC(MTS‑TFMD)DRSIP [BID_(80-102) M97C tagged with MTS-TFMD]	–	255	–
EDIIRNIARHLAQVGDSMDRCIP (Cys100 disulfide-linked to MTS-TFMD (trifluoromethyl phenyl diazirine) tag; synthetic peptide, termini not stated in main text Limits not printed in the main text (supplement); 172-327 is the usual soluble MCL-1 construct for BH3 assays, close to the PDB 2KBW construct) [BID_(80-102) S100C tagged with MTS-TFMD]	–	287	–
EDIC(MTS‑diazirine)RNIARHLAQVGDSMDRSIP [BID_(80-102) I83C tagged with MTS-diazirine]	–	406	–
